Assay results published in patent US20250002593A1.

B1: REGN14 (antibody, V domains shown)
VH: EVQLVESGGDLVQPGRSLRLSCAASGFTFDDYAMHWVRQAPGKGLEWVSVISWNSDVIAYSDSVKGRFTISRDNAKNSLYLQMNSLRTEDTALYYCTKGHKWSFFDYWGQGTLVTVSS
VL: EIVLTQSPATLSLSPGERATLSCRASQSISSYLAWYQQKPGQAPRLLIFNVANRATDIPARFSGSGSGTDFTLTISSLEPEDFAVYYCQQRSNWPLTFGGGTKVEIK
B2: BI655130 (antibody, V domains shown)
VH: QVQLVQSGAEVKKPGASVKVSCKASGYSFTSSWIHWVKQAPGQGLEWMGEINPGNVRTNYNENFRNKVTMTVDTSISTAYMELSRLRSDDTAVYYCTVVFYGEPYFPYWGQGTLVTVSS
VL: QIVLTQSPGTLSLSPGERATMTCTASSSVSSSYFHWYQQKPGQAPRLWIYRTSRLASGVPDRFSGSGSGTDFTLTISRLEPEDAATYYCHQFHRSPLTFGAGTKLEIK
B3: ANB019 (antibody, V domains shown)
VH: QVQLVQSGAEVKKPGASVKVSCKASGYTFTNYWMNWVRQAPRQGLEWMGMFHPTGDVTRLNQKFKDRVTMTRDTSTSTVYMELSSLRSEDTAVYYCARTTSMIIGGFAYWGQGTLVTVSS
VL: DIVMTQTPLSLSVTPGQPASISCRSSKSLLHRNAITYFYWYLHKPGQPPQLLIYQMSNLASGVPDRFSGSGSGTDFTLKISRVEAEDVGVYYCAQNLELPLTFGGGTKVEIK

Biological target: membrane cyno IL-36R (cynomolgus)
Assay: binding to cynomolgus IL-36R; the legend and Example 8 say membrane cyno IL-36R on transfected HEK293 cells by FACS, but the y axis on the sheet is OD450 nm; unit taken from the x axis

Binder | EC50
B1 | 0.0059 µg/mL
B2 | 0.196 µg/mL
B3 | 0.0132 µg/mL
